Reference: patent US20130150294A1

Assays:
[1] = target: EYFP-rat α1 (rat) (UniProt P06685); assay: FRET by acceptor photobleaching, 16 LLC-PK1 cells in six experiments
[2] = target: EYFP-rat α1 mutant (D371E) (rat) (UniProt P06685); assay: FRET by acceptor photobleaching, 20 TCN23-19 cells in three experiments

Question: Which results are given for Src-ECFP?
Answer: FRET efficiency [1]: 8.1 to 18.8; FRET efficiency (mean) [1]: 13.2; FRET efficiency [2]: 10.4 to 15.6; FRET efficiency (mean) [2]: 13.2
